# Test results as given in PMC2191888.
# pIC50, pKd: −log10 of the molar value.
# Target: MCP-1 receptor(s) on THP-1 cells (human (endogenous in THP-1)) (UniProt P41597)
# Test: radioligand binding
pKd,pIC50,fold higher Kd than MCP-1,Substance
6.41,,,MCP-1 2-76 analogue (from UniProt P13500 25-99) (domain or fragment)
6.31,,,MCP-1 3-76 analogue (from UniProt P13500 26-99) (domain or fragment)
7.64,,,MCP-1 5-76 analogue (from UniProt P13500 28-99) (domain or fragment)
8.08,7.77,,MCP-1 9-76 analogue (from UniProt P13500 32-99) (domain or fragment)
,,13 fold,MCP-1 10-76 analogue (from UniProt P13500 33-99) (domain or fragment)
,,48 fold,MCP-1 11-76 analogue (from UniProt P13500 34-99) (domain or fragment)
6.48,,,MCP-1 (Ac) (from UniProt P13500 24-99) (ligand)
8.55,,,"Monocyte chemoattractant protein 1 (MCP-1), synthetic, NH2-terminal pyroglutamate form (from UniProt P13500 24-99) (ligand)"
